Key:
[1] = molecular target: HIV-1 JR-CSF Env on pseudovirus (HIV-1 JR-CSF, UniProt P20871 32-848); assay: cell-based or functional assay
[2] = molecular target: JR-FL(E168K) Env on pseudovirus (HIV-1 JR-FL); assay: cell-based or functional assay
[3] = molecular target: ADA Env on pseudovirus (HIV-1 ADA); assay: cell-based or functional assay
[4] = molecular target: 92RW020 Env on pseudovirus (HIV-1 92RW020); assay: cell-based or functional assay
[5] = molecular target: T1, recombinant monomeric gp120 JR-CSF (HIV-1 JR-CSF, UniProt P20871 32-503); assay: mAb Specificity column, ELISA screen
T1 construct: domain: gp120; also called JR-CSF gp120; JR-CSFgp120
Procedure: In anti-gp120 ELISA, recombinant gp120 (0.5 μg/ml) was captured on 384 well ELISA plates pre-coated (at 4° C. overnight) with goat anti-gp120 (5 μg/ml) in BSA-containing assay buffer (PBS with 0.05% Tween-20) for 1 hr at room temperature. After excess gp120 was removed and plates were washed thrice with assay buffer, B cell culture supernatants diluted 5-fold was added to incubate for 1 hr at room temperature. Following three washes in assay buffer, secondary HRP-conjugated goat anti-human Ig Fc in BSA-containing assay buffer was added and incubated for about 1 hr at room temperature. 3,3′,5,5′-tetramethylbenzidine (TMB) substrate was used to develop the colorimetric readouts after washing the ELISA plates 3 times.

Row | Binder | IC50 (ug/ml), pseudovirus neutralization, TZM-bl assay [1] [µg/mL] | IC50 (ug/ml), pseudovirus neutralization, TZM-bl assay [2] [µg/mL] | IC50 (ug/ml), pseudovirus neutralization, TZM-bl assay [3] [µg/mL] | IC50 (ug/ml), pseudovirus neutralization, TZM-bl assay [4] [µg/mL] | binding result [5]
1 | 1443_C16 (PG16) (TCN-116) (antibody, V domains shown) VH: QEQLVESGGGVVQPGGSLRLSCLASGFTFHKYGMHWVRQAPGKGLEWVALISDDGMRKYHSDSMWGRVTISRDNSKNTLYLQFSSLKVEDTAMFFCAREAGGPIWHDDVKYYDFNDGYYNYHYMDVWGKGTTVTVSS VL: QSALTQPASVSGSPGQTITISCNGTSSDVGGFDSVSWYQQSPGKAPKVMVFDVSHRPSGISNRFSGSKSGNTASLTISGLHIEDEGDYFCSSLTDRSHRIFGGGTKVTVLG | 0.001 | 0.006 | 0.004 | 0.09 | –
2 | 1496_C09 (PG9) (TCN-109) (antibody, V domains shown) VH: QRLVESGGGVVQPGSSLRLSCAASGFDFSRQGMHWVRQAPGQGLEWVAFIKYDGSEKYHADSVWGRLSISRDNSKDTLYLQMNSLRVEDTATYFCVREAGGPDYRNGYNYYDFYDGYYNYHYMDVWGKGTTVTVSS VL: QSALTQPASVSGSPGQSITISCNGTSNDVGGYESVSWYQQHPGKAPKVVIYDVSKRPSGVSNRFSGSKSGNTASLTISGLQAEDEGDYYCKSLTSTRRRVFGTGTKLTVLG | – | – | 0.2 | 0.1 | –
3 | 1456_P20 (PG20) (antibody, human IgG1, kappa, V domains shown) VH: QVRLVQSGPEVKKPGSSVTVSCQASGGTFSSYAFTWVRQAPGQGLEWLGMVTPIFGEAKYSQRFEGRVTITADESTSTTSIELRGLTSEDTAIYYCARDRRAVPIATDNWLDPWGQGTLVTVSS VL: DIQLTQSPSSLSASVGDRVSITCRASQTINNYLNWYQQTPGKAPKLLIYGASNLQNGVPSRFSGSGSGTDFTLTISSLQPEDFATYYCQQSFSTPRTFGQGTRLDIKR | – | – | – | – | binds
4 | 1460_G14 (PGG14) (antibody, human IgG1, kappa, V domains shown) VH: QVLLVQSGTEVKKPGSSVKVSCQASGGAFSSYAFSWVRQAPGQGLEWMGMITPVFGETKYAPRFQGRLTLTAEESLSTTYMELRSLTSDDTAFYYCTRDRRVVPMATDNWLDPWGQGTLVTVSS VL: DIQLTQSPSSLSASVGDRVTVTCRASQTIHTYLNWYQQIPGKAPKLLIYGASTLQSGVPSRFSGSGSGTDFTLTINSLQPEDFATYYCQQSYSTPRTFGQGTRLDIKR | – | – | – | – | binds
5 | 1495_C14 (PGC14) (antibody, human IgG1, lambda, V domains shown) VH: DGHLVQSGVEVKKTGATVKISCKVSGYSFIDYYLHWVQRAPGKGLEWVGLIDPENGEARYAEKFQGRVTIIADTSIDTGYMEMRSLKSEDTAVYFCAAGAVGADSGSWFDPWGQGTLVTVSS VL: SYELTQPPSVSVSPGQTASITCSGSKLGDKYVSWYQLRPGQSPILVMYENDRRPSGIPERFSGSNSGDTATLTISGTQALDEADFYCQAWETTTTTFVFFGGGTQLTVLG | – | – | – | – | binds

From patent US20140205612A1 (published 2014)
